The term koff denotes a measure of how fast the partners let go of each other. A low value points to a long-lived complex.

We go through three substances from patent publication US7122646.

For assay [1], the target named is hen egg lysozyme (hen) (UniProt P00698). Kind of assay: phage ELISA with 50 µl phage supernatant, sheep anti-M13 detection; background 0.1.
Assay [2] has the same target. Kind of assay: BIAcore, HEL coated chip. In general terms: SPR reads the build-up and loss of mass on a sensor chip optically.

Chain of UniProt P00698 (P00698 19-147 limits assumed): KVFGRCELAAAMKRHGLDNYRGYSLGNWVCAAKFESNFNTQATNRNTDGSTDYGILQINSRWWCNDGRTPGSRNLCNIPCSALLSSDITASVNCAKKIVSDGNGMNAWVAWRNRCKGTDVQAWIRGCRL

With “NQ11/D1.3/0 bispecific diabody displayed on the surface of phage (bispecific antibody)”, the absorbance signal in assay [1] was determined as 2.8.
On to “bispecific NQ11/D1.3 diabody, construct VI, 5 residue linkers (bispecific antibody)”, for which the koff in assay [2] came out at 0.0022 s⁻¹.
Take chimaeric D1.3 Fab fragment: the koff in assay [2] was found to be 0.003 s⁻¹.
